In general, Kd refers to a measure of binding affinity in units of concentration.

Among the data in PMC5111884, “NPAS1-ARNT and NPAS3-ARNT crystal structures implicate the bHLH-PAS family as multi-ligand binding transcription factors” are Kd values, retold here.

The target of series [1] is NPAS3;ARNT (mouse;mouse?, UniProt Q9QZQ0;P53762 56-455;82-464, |). Briefly: fluorescence anisotropy; FP: 2 nM DNA, 20 mM Tris pH 8.0, 50 mM NaCl, 10 mM DTT, 30 min, temperature not stated (DNA annealed in 10 mM Tris pH 7.5, 1 mM EDTA, 2 mM MgCl2). Particulars: protein: recombinant;recombinant; tags: vector pSJ2; copies: 1;1; blunt.
For series [2], the target named is NPAS1;ARNT (mouse;mouse?, UniProt A2RSH6;P53762 43-423;82-464, |). The series is described as above. As to conditions: protein: recombinant;recombinant; tags: vector pSJ2; copies: 1;1; blunt.
Sequence of NPAS1;ARNT (chain, as listed by the source |, chain 1 of 2): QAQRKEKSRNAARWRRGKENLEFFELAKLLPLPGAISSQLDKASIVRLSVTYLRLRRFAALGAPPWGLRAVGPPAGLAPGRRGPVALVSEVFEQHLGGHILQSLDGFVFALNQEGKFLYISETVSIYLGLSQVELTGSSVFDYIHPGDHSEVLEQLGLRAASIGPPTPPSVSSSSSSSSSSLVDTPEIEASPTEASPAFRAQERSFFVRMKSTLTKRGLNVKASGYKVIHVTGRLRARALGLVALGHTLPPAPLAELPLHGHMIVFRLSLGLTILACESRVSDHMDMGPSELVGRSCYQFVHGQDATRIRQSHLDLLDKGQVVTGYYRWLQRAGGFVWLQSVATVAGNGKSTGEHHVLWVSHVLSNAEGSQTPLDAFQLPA
Sequence of NPAS1;ARNT (P53762 82-464, chain 2 of 2): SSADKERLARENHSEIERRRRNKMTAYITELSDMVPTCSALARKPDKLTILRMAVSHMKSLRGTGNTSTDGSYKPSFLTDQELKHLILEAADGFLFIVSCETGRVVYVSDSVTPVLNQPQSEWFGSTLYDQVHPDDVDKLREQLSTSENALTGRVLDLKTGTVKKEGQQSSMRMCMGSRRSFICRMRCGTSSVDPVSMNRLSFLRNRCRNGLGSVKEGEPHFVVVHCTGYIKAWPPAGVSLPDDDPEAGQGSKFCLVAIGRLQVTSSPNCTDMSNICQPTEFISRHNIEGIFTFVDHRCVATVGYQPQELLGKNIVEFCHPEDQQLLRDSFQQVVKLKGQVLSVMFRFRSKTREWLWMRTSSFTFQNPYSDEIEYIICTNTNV

Sequence of NPAS3;ARNT (Q9QZQ0 56-455, chain 1 of 2): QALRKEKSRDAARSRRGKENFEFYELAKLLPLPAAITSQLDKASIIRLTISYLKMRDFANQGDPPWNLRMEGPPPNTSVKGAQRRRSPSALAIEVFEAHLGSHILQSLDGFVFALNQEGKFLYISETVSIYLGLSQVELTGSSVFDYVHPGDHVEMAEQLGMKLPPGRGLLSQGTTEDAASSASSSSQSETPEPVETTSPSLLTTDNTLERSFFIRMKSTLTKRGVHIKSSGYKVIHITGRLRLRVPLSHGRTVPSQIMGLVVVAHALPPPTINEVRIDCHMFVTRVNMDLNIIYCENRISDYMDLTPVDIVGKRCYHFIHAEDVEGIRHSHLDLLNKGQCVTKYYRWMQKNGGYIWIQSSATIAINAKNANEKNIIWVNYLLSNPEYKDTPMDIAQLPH
Sequence of NPAS3;ARNT (P53762 82-464, chain 2 of 2): as the sequence (P53762 82-464, chain 2 of 2) above

B1: HRE 21-mer (FP probe) (dsDNA)
DNA 1: GGCTGCGTACGTGCGGGTCGT
DNA 2: ACGACCCGCACGTACGCAGCC
With B1, the Kd in series [1] turned out to be 17.5 ± 1.1 nM; in series [2], 16.3 ± 1.1 nM.
